According to US20220089735A1 (SUZHOU KANOVA BIOPHARMACEUTICAL, published 2022):
Residue numbers refer to the chain shown, from its start. Each block holds one binder with its values, some of them ahead of it.

Key:
[1] = molecular target: T1, human B7S1 (NCBI Reference Sequence: NP_078902.2) expressed on a cell surface (human, UniProt Q7Z7D3 25-282); experiment: flow cytometry (mean fluorescence intensity) on BaF3 cells expressing human B7S1, detection with Alexa Fluor 594 goat anti-human IgG
T1 construct: whole, on cells; the assay field says which cells were used; also called B7S1 overexpressed on cell surface; B7S1 transfected BaF3 cell line
T1 sequence (looked up): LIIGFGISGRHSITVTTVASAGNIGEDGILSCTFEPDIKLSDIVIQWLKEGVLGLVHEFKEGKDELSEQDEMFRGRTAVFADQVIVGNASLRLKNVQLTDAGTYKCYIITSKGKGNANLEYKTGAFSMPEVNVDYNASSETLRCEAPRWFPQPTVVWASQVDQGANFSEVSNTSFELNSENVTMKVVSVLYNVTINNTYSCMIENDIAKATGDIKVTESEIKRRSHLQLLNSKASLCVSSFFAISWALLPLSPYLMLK
Experimental: To evaluate anti-B7S1 antibody binding affinity on cell surface over expressing B7S1, human B7S1 (NCBI Reference Sequence: NP_078902.2) was constructed on BaF3 cell line. The cells were washed with PBS and aliquot to 96-well U-bottom plate with a cell density of 5×10\hat{ }5 cells/well. For live/dead stain, LIVE/DEAD® Fixable Aqua Dead Cell Stain Kit (Life technologies, L34957) was applied (1:1000 in PBS, 100 ul/well) to cells, and incubated at 4° C. for 10 min FACS buffer (2% FBS in PBS, 100 ul/well) was added to each well to terminate staining. Centrifuge (1200 rpm, 5 min) to discard supernatant and wash with FACS buffer once. Humanized anti-B7S1 antibodies were diluted in FACS buffer to according concentrations and added to each well (100 ul/well). Cells were incubated at 4° C. for 30 min, and then, washed twice with FACS buffer. […] Cells were incubated at 4° C. for 30 min, and then, washed twice with FACS buffer. […] For example, the binding EC₅₀ of the tested mAbs is in the sub nM range.

[2] = molecular target: T2, cynomolgus B7S1 extracellular domain (Leu25-Ser259, NCBI Reference Sequence: XP_005542249.1) (cynomolgus monkey); experiment: ELISA, antigen coated on plate
T2 construct: range 25-259; No tag or fusion partner is stated; also called cynomolgus monkey B7S1
Experimental: (§1) In order to test humanized anti-B7S1 antibody binding affinity, an ELISA analysis was carried out. 2 μg/ml of human B7S1-his (Sinobiological, cat#10738-H08H-100), mouse B7S1-his (R&D system, cat#4206-B7-100), and cynomolgus B7S1 extracellular domain (Leu25-Ser259, NCBI Reference Sequence: XP_005542249.1) were coated on MaxiSorp 96-well plates (NUNC, 449824) in 0.5M carbonate/bicarbonate buffer, pH9.6, incubated at 4° C. over night. Coated plates were blocked with skimmed milk (5%, in PBST) for 1h. Humanized anti-B7S1 antibodies were diluted and added to the plates, and incubated for 2h at room temperature. Washed three times with PBST (lx PBS with 0.05% tween-20) to eliminate un-bounded antibodies. Goat anti-Human IgG-HRP (Easybio, BE0122, 1:5000 in PBS) was added and incubated for 1h. Washed three times with PBST (lx PBS with 0.05% tween-20) to eliminate un-bounded antibodies. TMB (eBioscience, 00-4201-56) was added (50 ul/well) for color rendering and stopped by 2N H₂SO₄ (50 ul/well). Optical density was measured at 450 nm and 570 nm.

[3] = molecular target: T3, mouse B7S1-his (R&D system, cat#4206-B7-100) (mouse, UniProt Q7TSP5 29-256); experiment: ELISA, antigen coated on plate
T3 construct: Bought protein; not shown: His tag
T3 sequence (looked up): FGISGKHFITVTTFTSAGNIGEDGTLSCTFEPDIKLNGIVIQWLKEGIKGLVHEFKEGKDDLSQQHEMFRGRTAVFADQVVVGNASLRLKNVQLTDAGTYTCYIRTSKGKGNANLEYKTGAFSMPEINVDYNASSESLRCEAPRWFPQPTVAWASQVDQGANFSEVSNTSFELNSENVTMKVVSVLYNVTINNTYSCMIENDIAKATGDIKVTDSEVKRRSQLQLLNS
Experimental: as §1

[4] = molecular target: T4, human B7S1-his (Sinobiological, cat#10738-H08H-100) (human, UniProt Q7Z7D3 25-259); experiment: ELISA, antigen coated on plate
T4 construct: extracellular domain; Bought protein; also called human B7S1 extracellular domain; B7-H4; not shown: His tag
T4 sequence (looked up): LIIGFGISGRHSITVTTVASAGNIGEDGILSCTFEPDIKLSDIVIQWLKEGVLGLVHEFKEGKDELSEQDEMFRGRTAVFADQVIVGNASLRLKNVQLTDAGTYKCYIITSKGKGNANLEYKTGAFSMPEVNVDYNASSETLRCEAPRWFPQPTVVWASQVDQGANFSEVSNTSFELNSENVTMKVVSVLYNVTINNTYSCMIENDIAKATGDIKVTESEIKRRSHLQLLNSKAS
Experimental: as §1

[5] = molecular target: T4, human B7S1-his (Sinobiological, …); experiment: SPR, Biacore 8K, antibody captured by Fc, B7S1 as analyte
Experimental: FIG. 1. Experimental results of Surface Plasmon Resonance (SPR) binding analysis using Biacore 8K. The data of dissociation (kd) and association (ka) rate constants were obtained using Biacore 8K evaluation software. The equilibrium dissociation constants (KD) were calculated from the ratio of kd over ka.
In addition, the affinity of the above mAbs was further analyzed by Surface Plasmon Resonance (SPR) binding analysis using Biacore 8K. SPR is the resonant oscillation of conduction electrons at the interface between negative and positive permittivity material stimulated by incident light. Antibodies were immobilized on the sensor chip through Fc capture method. Human B7S1 (Sinobiological, cat#10738-H08H-100) was used as the analyte. The data of dissociation (kd) and association (ka) rate constants were obtained using Biacore 8K evaluation software. The equilibrium dissociation constants (KD) were calculated from the ratio of kd over ka.

[6] = molecular target: T1, human B7S1 (NCBI Reference Sequence: …); experiment: flow cytometry on LPS-stimulated human PBMCs (percentage of live PBMC stained), detection with Alexa Fluor 594 goat anti-human IgG
Experimental: (§2) Peripheral blood mononuclear cells (PBMCs) contain monocytes which under stimulation would up-regulate B7S1 expression on cell surface. This example is to evaluate humanized anti-B7S1 antibody binding affinity on monocytes. Human buffy coat was diluted with PBS to according volume as twice as Ficoll (GE, 17-1440-02). The diluted buffy coat was layered gently on top of Ficoll and centrifuged at 2500 rpm for 40 min at 20° C. without brake. Carefully draw off PBMCs layer in between Ficoll and its transparent supernatant. PBS was added to 5 volumes of PBMCs and centrifuged at 1200 rpm for 10 min at 20° C. Discard supernatant and wash with PBS again. To eliminate platelets, centrifuge at 900 rpm for 8 min at 20° C. PBMCs were resuspended with culture medium (RPMI-1640 with 10% FBS and 1% PS), counted and aliquot to 96-well plate (5×10\hat{ }5 cells/well) with LPS added (100 ng/ml). After 24h incubation, cells were washed with PBS twice. For live/dead stain, LIVE/DEAD® Fixable Aqua Dead Cell Stain Kit (Life technologies, L34957) was applied (1:1000 in PBS, 100 ul/well) to cells, and incubated at 4° C. for 10 min FACS buffer (2% FBS in PBS, 100 ul/well) was added to each well to terminate staining. Centrifuge (1200 rpm, 5 min) to discard supernatant and wash with FACS buffer once. Humanized anti-B7S1 antibodies were diluted in FACS buffer to according concentrations and added to each well (100 ul/well). Cells were incubated at 4° C. for 30 min, and then, washed twice with FACS buffer. […] Cells were incubated at 4° C. for 30 min, and then, washed twice with FACS buffer. Cells were tested on flow cytometry. […] The mAbs meet the requirements for binding profile of antibody drugs.

[7] = molecular target: T1, human B7S1 (NCBI Reference Sequence: …); experiment: flow cytometry, LPS-stimulated human PBMCs
Experimental: as §2

EC50 [1]: 3.8 nM
EC50 [2]: 8.09 nM
EC50 [3]: 1.09 nM
EC50 [4]: 0.52 nM
Kd [5]: 3.24 nM
koff [5]: 0.000265 s⁻¹
kon [5]: 81700 M⁻¹ s⁻¹
EC50 [6]: 2.6 nM
EC50 [7]: < 3 nM
B1: humanized anti-B7S1 antibody VH1-5/VL4-5 (antibody, V domains shown)
VH: QVQLVQSGAEVKKPGASVKVSCKASGYTFTSYWMHWVKQAPGQGLEWIAAIYPGNSDTDYNQKFKGKAKITAVTSTSTAYMELSSLRSEDTAVYYCTTTVAHYFDYWGQGTMVTVSS
VL: EIVMTQSPATLSLSPGERATLTCKASQDVSFAVAWYQQKPGQAPKLLISSASYRYTGVPDRFSGSGSGTDFTLTISSLEPEDFAVYYCQQHYNTPLTFGGGTKVEIK
notes: Tested as a whole antibody with a human Fc (detected with anti-human IgG, Fc capture in SPR)

EC50 [1]: 3.1 nM
EC50 [2]: 3.26 nM
EC50 [3]: 0.88 nM
EC50 [4]: 0.4 nM
Kd [5]: 1.86 nM
koff [5]: 0.000187 s⁻¹
kon [5]: 101000 M⁻¹ s⁻¹
EC50 [6]: 3 nM
EC50 [7]: < 3 nM
B2: humanized anti-B7S1 antibody VH1-5/VL4-4 (antibody, V domains shown)
VH: B1 VH
VL: B1 VL with M4L, T22S, K45R
notes: as for B1

EC50 [1]: 4.2 nM
EC50 [2]: 7.82 nM
EC50 [3]: 1.59 nM
EC50 [4]: 0.25 nM
Kd [5]: 4.08 nM
koff [5]: 0.000436 s⁻¹
kon [5]: 107000 M⁻¹ s⁻¹
EC50 [6]: 2.4 nM
EC50 [7]: < 3 nM
B3: humanized anti-B7S1 antibody VH1-4/VL4-5 (antibody, V domains shown)
VH: B1 VH with K38R, A79V
VL: B1 VL
notes: as for B1
